Columns and labels:
[1] = biological target: T1, Rv2887 (MarR family regulator) (Mycobacterium tuberculosis H37Rv) (UniProt P9WME9); assay: DNase I footprinting
T1 sequence: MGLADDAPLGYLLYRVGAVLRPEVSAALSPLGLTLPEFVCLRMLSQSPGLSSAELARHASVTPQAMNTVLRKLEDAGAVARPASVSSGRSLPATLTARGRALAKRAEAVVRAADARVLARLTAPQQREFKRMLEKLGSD

[2] = biological target: T1, Rv2887 (MarR family regulator) (Mycobacterium tuberculosis H37Rv); assay: EMSA
[3] = biological target: T2, Rv2887 (crystal with DNA) (Mycobacterium tuberculosis H37Rv, UniProt P9WME9 1-139); assay: X-ray crystal structure (2.5 A); details: protein: recombinant; tags: N-terminal 6xHis (pET-28a); chain copies: 4; blunt
T2 sequence: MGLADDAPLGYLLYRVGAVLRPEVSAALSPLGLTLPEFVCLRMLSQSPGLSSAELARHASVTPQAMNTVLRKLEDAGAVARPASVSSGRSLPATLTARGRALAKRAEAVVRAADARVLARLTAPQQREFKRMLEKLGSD

## CGAACTCAAGATCCAGCGATTCAGTCATGTGTTCATATATATCAACGGCCCTGATATATGTCAACACAGTTGACATTCGCGCACCCTTGGTTGCCGGCCGTCAGCTGAACGGCGGTCGTCGATCGACGAGCCGGGACAATTGACCGCCACCGCGCCACACCCGCGCCACCCAGTCGCGGTCGTCGTCGGTGACCAGATTGGACATCACCCGCACGGCGATGTTCATCAATGCGGTGGAGCGCATCGTGATGGGC (double strand) [Rv0560c upstream probe (6-FAM)]
[1]
  binding: binds

## CGAACTCAAGATCCAGCGATTCAGTCATGTGTTCATATATATCAACGGCCCTGATATATGTCAACACAGTTGACATTCGCGCACCCTTGGTTGCCGGCCGTCAGCTGAACGGCGGTCGTCGATCGACGAGCCGGGACAATTGACCGCCACCGCGCCACACCCGCGCCACCCAGTCGCGGTCGTCGTCGGTGACCAGATTGGACATCACCCGCACGGCGATGTTCATCAATGCGGTGGAGCGCATCGTGATGGGC (double strand) [Rv0560c upstream probe (biotin)]
[2]
  binding: binds

B1: 30 bp Rv0560c operator duplex (dsDNA)
DNA 1: CGATCGACGACCGCCGTTCAGCTGACGTCG
DNA 2: CGACGTCAGCTGAACGGCGGTCGTCGATCG
[3]
  binding result: binds

From article PMC5526998, “Structural analysis of the regulatory mechanism of MarR protein Rv2887 in M. tuberculosis” (Scientific Reports, 2017)
